Laboratory results: patent US20250101074A1 (Affibody, published 2025)

Biological target: T1, Human a-2 macroglobulin (human, UniProt P01023 24-1474)
T1 sequence (looked up): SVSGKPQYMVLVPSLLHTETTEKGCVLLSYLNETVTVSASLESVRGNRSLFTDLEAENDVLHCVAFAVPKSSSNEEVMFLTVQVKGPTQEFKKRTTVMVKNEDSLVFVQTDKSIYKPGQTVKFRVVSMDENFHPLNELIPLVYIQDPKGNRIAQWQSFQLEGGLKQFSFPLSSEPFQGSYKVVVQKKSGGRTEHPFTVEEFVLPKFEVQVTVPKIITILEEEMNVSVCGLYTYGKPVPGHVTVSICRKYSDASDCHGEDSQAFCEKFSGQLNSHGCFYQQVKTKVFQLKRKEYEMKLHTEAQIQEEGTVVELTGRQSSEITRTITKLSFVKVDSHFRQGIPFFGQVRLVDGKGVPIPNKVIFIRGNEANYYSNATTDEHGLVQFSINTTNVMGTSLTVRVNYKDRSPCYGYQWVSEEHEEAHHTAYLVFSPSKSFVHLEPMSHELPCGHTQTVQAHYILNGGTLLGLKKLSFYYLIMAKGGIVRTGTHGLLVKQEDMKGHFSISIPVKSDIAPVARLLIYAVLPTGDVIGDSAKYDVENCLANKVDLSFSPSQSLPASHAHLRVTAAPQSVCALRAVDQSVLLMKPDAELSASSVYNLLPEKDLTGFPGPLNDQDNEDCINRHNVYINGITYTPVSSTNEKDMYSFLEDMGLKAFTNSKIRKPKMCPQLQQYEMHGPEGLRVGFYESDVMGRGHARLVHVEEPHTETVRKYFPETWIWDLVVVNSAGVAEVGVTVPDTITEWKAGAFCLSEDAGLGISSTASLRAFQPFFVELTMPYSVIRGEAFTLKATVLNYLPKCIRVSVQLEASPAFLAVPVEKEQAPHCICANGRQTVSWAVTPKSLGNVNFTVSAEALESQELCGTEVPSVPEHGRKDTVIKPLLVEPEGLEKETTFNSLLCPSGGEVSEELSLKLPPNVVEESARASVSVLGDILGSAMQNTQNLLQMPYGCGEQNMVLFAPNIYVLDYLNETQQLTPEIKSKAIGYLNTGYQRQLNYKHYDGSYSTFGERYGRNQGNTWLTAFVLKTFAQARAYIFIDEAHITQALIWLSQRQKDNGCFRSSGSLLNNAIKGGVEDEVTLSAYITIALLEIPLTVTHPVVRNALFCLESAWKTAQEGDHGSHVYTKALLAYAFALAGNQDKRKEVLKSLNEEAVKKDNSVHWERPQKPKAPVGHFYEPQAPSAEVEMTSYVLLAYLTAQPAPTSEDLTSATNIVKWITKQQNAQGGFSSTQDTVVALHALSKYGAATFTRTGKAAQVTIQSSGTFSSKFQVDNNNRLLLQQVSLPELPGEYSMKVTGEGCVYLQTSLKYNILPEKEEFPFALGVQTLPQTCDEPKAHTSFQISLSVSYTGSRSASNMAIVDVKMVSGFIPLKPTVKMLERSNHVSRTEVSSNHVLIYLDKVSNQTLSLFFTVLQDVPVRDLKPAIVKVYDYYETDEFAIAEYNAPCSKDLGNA
Experiment: SPR (Biacore), PEP07843 immobilized, analyte protein injected
Description: In the binding experiment, HBS-EP was used as running buffer and the flow rate was 30 μl/min. […] The analytes, i.e. the panels of 24 or 12 different proteins, were each diluted in HBS-EP or HBS-EP supplemented with 500 mM NaCl to final concentrations of from 0.4 to 250 nM and injected for 5 min. […] The results were analyzed using the BiaEvaluation software.
The Z-ABD-Z polypeptides were injected over surfaces containing HSA followed by injection of the analyte proteins.

GSSLAEAKEAANAELDSYGVSDFYKRLIDKAKTVEGVEALKDAILAALP (designed binder) [ABD variant PEP07843]
binding result: no binding (tested: 50, 250 nM)
